Measurements taken from the RNAGym collection of RNA variant scans (doi:10.1073/pnas.2313332121).

B1: TPR t1 (parent)
chain: GACCAAUCUGCCCUCAGAGCUCGAGAACAUCUUCGGAUGCAGAGGAGGCAGGCUUCGGUGGCGCGAUAGCGCCAACGUCCUCAACCUCCAAUGCAUCCCACCACAUGAUGAUGCCUGAAGAGCCUUGGUUUUUUG

Variants of: B1
Test: polymerase ribozyme fitness, log enrichment relative to wild type (log ratio); higher = more active; in vitro selection for triplet polymerase activity
How it was run: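 Libraries of mutants in each subunit of a heterodimeric triplet polymerase ribozyme were generated by PCR and transcribed. In triplicate, each went through one in vitro selection round: annealing with biotinylated primer, partner subunit and triplets; frozen incubation at −7 °C; gel excision of extended constructs; streptavidin-bead capture; RT-PCR. Fitness, taken from Illumina sequencing of input and output libraries, is the logarithm of a genotype's enrichment over wild-type enrichment, averaged across replicates with inverse-variance weights. The logarithm is base 2, and genotypes needed ≥10 input reads and ≥1 read per output to be kept.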

For U54A C70G C86U, which “polymerase ribozyme fitness (log ratio)” value is on record?
Its value is -3.2.

Which “polymerase ribozyme fitness (log ratio)” value does the source give for C53G C70A G117A here?
Its value is -3.42.

With C53A C72U C86U G110C as the variant, how does the “polymerase ribozyme fitness (log ratio)” value read?
Its value is -3.78.

With G52U A74G A84G A121U as the variant, how does the “polymerase ribozyme fitness (log ratio)” value read?
The value was 0.168.

For U54A C70U G113U C114G A121C, which “polymerase ribozyme fitness (log ratio)” value is on record?
The value was -2.74.

Which “polymerase ribozyme fitness (log ratio)” value does the source give for C53U C102U C114A here?
Its value is -4.76.

For C53G A119U C123A, which “polymerase ribozyme fitness (log ratio)” value is on record?
Its value is -1.16.

For C53G G69U, which “polymerase ribozyme fitness (log ratio)” value is on record?
Its value is -0.127.

Which “polymerase ribozyme fitness (log ratio)” value does the source give for G52A G63C here?
Its value is -0.879.

With C53A C72U C86G C115U as the variant, how does the “polymerase ribozyme fitness (log ratio)” value read?
The value was -1.64.

With C53A C56G G71C G127C as the variant, how does the “polymerase ribozyme fitness (log ratio)” value read?
Its value is -1.96.

With C53G G60U G65U C104U as the variant, how does the “polymerase ribozyme fitness (log ratio)” value read?
The value was -7.04.

With G51U U87C C123A as the variant, how does the “polymerase ribozyme fitness (log ratio)” value read?
Its value is -2.59.

With G51U G71C U109G G117U C124G as the variant, how does the “polymerase ribozyme fitness (log ratio)” value read?
The value was -7.73.

For C53A G63A C124U U129C U134G, which “polymerase ribozyme fitness (log ratio)” value is on record?
The value was 1.57.

With U54G A95U as the variant, how does the “polymerase ribozyme fitness (log ratio)” value read?
Its value is -0.988.

For G52A U59A, which “polymerase ribozyme fitness (log ratio)” value is on record?
The value was 0.487.

For C53A C88A, which “polymerase ribozyme fitness (log ratio)” value is on record?
The value was -0.22.

Which “polymerase ribozyme fitness (log ratio)” value does the source give for C53A C56G C62U C89A G120C U134G here?
The value was -0.681.

Which “polymerase ribozyme fitness (log ratio)” value does the source give for C53U C123U here?
Its value is 1.1.

For C53U A105C G120C G122A U129A, which “polymerase ribozyme fitness (log ratio)” value is on record?
Its value is -5.42.

Which “polymerase ribozyme fitness (log ratio)” value does the source give for U54A G61A C124A G128U here?
Its value is -0.356.

For C53U G60A C73A U106G C123G U126A, which “polymerase ribozyme fitness (log ratio)” value is on record?
Its value is -2.6.

Which “polymerase ribozyme fitness (log ratio)” value does the source give for G52A U109A here?
Its value is -5.76.

With C53G G63C A91C A118C as the variant, how does the “polymerase ribozyme fitness (log ratio)” value read?
The value was -4.54.

For G51U U59A, which “polymerase ribozyme fitness (log ratio)” value is on record?
Its value is -2.98.

Which “polymerase ribozyme fitness (log ratio)” value does the source give for G51C C62U here?
Its value is -3.45.

With C53U C64G C73U A90C U112G as the variant, how does the “polymerase ribozyme fitness (log ratio)” value read?
The value was -7.28.

For C53A C70U, which “polymerase ribozyme fitness (log ratio)” value is on record?
Its value is 0.0165.

With C53U U112G as the variant, how does the “polymerase ribozyme fitness (log ratio)” value read?
Its value is -0.00138.

For U54C A103G, which “polymerase ribozyme fitness (log ratio)” value is on record?
Its value is -4.75.

Which “polymerase ribozyme fitness (log ratio)” value does the source give for C53A G60A U92G here?
Its value is -2.9.

For C53A U87C, which “polymerase ribozyme fitness (log ratio)” value is on record?
Its value is 0.506.

For C53G C102A, which “polymerase ribozyme fitness (log ratio)” value is on record?
The value was -2.97.

With G52A G71C as the variant, how does the “polymerase ribozyme fitness (log ratio)” value read?
The value was -3.42.

For G51C A91U G113C C124A, which “polymerase ribozyme fitness (log ratio)” value is on record?
Its value is -5.11.

With G52U C70U as the variant, how does the “polymerase ribozyme fitness (log ratio)” value read?
The value was -1.49.

With G51U U116C as the variant, how does the “polymerase ribozyme fitness (log ratio)” value read?
The value was -4.25.

With G52U C80G as the variant, how does the “polymerase ribozyme fitness (log ratio)” value read?
The value was -4.76.

For C53A U92G A95U, which “polymerase ribozyme fitness (log ratio)” value is on record?
The value was -2.44.

For C53G C70U U125C, which “polymerase ribozyme fitness (log ratio)” value is on record?
Its value is -3.18.

For C53G G61C A66C, which “polymerase ribozyme fitness (log ratio)” value is on record?
The value was -2.24.

For G51U G117U, which “polymerase ribozyme fitness (log ratio)” value is on record?
The value was -5.83.

With C53U C124U as the variant, how does the “polymerase ribozyme fitness (log ratio)” value read?
The value was 1.92.

Which “polymerase ribozyme fitness (log ratio)” value does the source give for C53U C124G here?
Its value is 1.61.

With G51U G113U as the variant, how does the “polymerase ribozyme fitness (log ratio)” value read?
The value was -6.05.

Which “polymerase ribozyme fitness (log ratio)” value does the source give for G52A U55C C56A G57C here?
The value was 0.195.

Which “polymerase ribozyme fitness (log ratio)” value does the source give for C53U G69A here?
Its value is -2.64.

For G52U U133G, which “polymerase ribozyme fitness (log ratio)” value is on record?
The value was -1.42.

With G51U G71C as the variant, how does the “polymerase ribozyme fitness (log ratio)” value read?
Its value is -5.37.

Which “polymerase ribozyme fitness (log ratio)” value does the source give for U54G A75U C89U here?
Its value is -0.98.

For C53A G61C U78C C85U G93A, which “polymerase ribozyme fitness (log ratio)” value is on record?
Its value is -0.976.

Which “polymerase ribozyme fitness (log ratio)” value does the source give for C53U G71U here?
The value was -0.192.

With C53U G71C as the variant, how does the “polymerase ribozyme fitness (log ratio)” value read?
The value was -0.133.

With U54A U96C as the variant, how does the “polymerase ribozyme fitness (log ratio)” value read?
The value was 0.104.

With C53U G60C G120A as the variant, how does the “polymerase ribozyme fitness (log ratio)” value read?
Its value is 0.0788.

With G52U C86G C89G G113C C114U A118G as the variant, how does the “polymerase ribozyme fitness (log ratio)” value read?
The value was -4.62.

For C53A G61A U78G C79A U81G C85A, which “polymerase ribozyme fitness (log ratio)” value is on record?
The value was -4.32.

Which “polymerase ribozyme fitness (log ratio)” value does the source give for G51C G52U C102A C124A here?
Its value is -4.54.

With C53G G122A as the variant, how does the “polymerase ribozyme fitness (log ratio)” value read?
The value was -1.37.

With G51U C64G A83C G113U C123G G127A as the variant, how does the “polymerase ribozyme fitness (log ratio)” value read?
Its value is -6.21.

With G52A G63U C114A as the variant, how does the “polymerase ribozyme fitness (log ratio)” value read?
Its value is -3.58.

With G52A G60U C104G as the variant, how does the “polymerase ribozyme fitness (log ratio)” value read?
The value was -7.51.

Which “polymerase ribozyme fitness (log ratio)” value does the source give for C53U U59C here?
The value was -0.508.

For G52U G60U, which “polymerase ribozyme fitness (log ratio)” value is on record?
Its value is -0.578.

With U54G C62A U78C C123U U126A as the variant, how does the “polymerase ribozyme fitness (log ratio)” value read?
Its value is -6.39.

For C53A G60A G69C, which “polymerase ribozyme fitness (log ratio)” value is on record?
Its value is -3.47.

With C53A G60C A103C U116C G120C as the variant, how does the “polymerase ribozyme fitness (log ratio)” value read?
Its value is -7.17.

For U54C C73G A121U, which “polymerase ribozyme fitness (log ratio)” value is on record?
Its value is 1.17.

With C53G U125A as the variant, how does the “polymerase ribozyme fitness (log ratio)” value read?
Its value is -2.2.

Which “polymerase ribozyme fitness (log ratio)” value does the source give for C53A G58A C89G C102U A103U C123G here?
The value was -5.91.

Which “polymerase ribozyme fitness (log ratio)” value does the source give for C53U C124A G128C here?
Its value is -0.772.

Which “polymerase ribozyme fitness (log ratio)” value does the source give for C53G G77A C102U G120C U125A here?
The value was -2.26.

With C53U C114A as the variant, how does the “polymerase ribozyme fitness (log ratio)” value read?
Its value is -1.2.

For G52C C64U A84U C104A U112A, which “polymerase ribozyme fitness (log ratio)” value is on record?
Its value is -1.62.

With G51C C72A as the variant, how does the “polymerase ribozyme fitness (log ratio)” value read?
The value was -3.1.

For U54A G61U C62U U96G, which “polymerase ribozyme fitness (log ratio)” value is on record?
The value was -6.42.

For G52U G69C, which “polymerase ribozyme fitness (log ratio)” value is on record?
The value was -1.54.

With C53U U54G G117A as the variant, how does the “polymerase ribozyme fitness (log ratio)” value read?
The value was -0.796.

With C53U C86G C89G C97U C124U as the variant, how does the “polymerase ribozyme fitness (log ratio)” value read?
Its value is -1.92.

With U54A C115U as the variant, how does the “polymerase ribozyme fitness (log ratio)” value read?
Its value is -1.11.

With C53G C56A G117C as the variant, how does the “polymerase ribozyme fitness (log ratio)” value read?
Its value is -4.49.

For G51U G61A, which “polymerase ribozyme fitness (log ratio)” value is on record?
The value was -3.03.

With C53G G71C C72U as the variant, how does the “polymerase ribozyme fitness (log ratio)” value read?
The value was -0.79.
